The target of the assay is human complement factor H (CFH) (human) (UniProt P08603). Briefly: ELISA; […] (20 mM HEPES, 50 mM NaCl, pH 7.4) […].

Our source for the Kd values is PMC4909234.

human complement factor H (CFH) (human), sequence (P08603 19-1231): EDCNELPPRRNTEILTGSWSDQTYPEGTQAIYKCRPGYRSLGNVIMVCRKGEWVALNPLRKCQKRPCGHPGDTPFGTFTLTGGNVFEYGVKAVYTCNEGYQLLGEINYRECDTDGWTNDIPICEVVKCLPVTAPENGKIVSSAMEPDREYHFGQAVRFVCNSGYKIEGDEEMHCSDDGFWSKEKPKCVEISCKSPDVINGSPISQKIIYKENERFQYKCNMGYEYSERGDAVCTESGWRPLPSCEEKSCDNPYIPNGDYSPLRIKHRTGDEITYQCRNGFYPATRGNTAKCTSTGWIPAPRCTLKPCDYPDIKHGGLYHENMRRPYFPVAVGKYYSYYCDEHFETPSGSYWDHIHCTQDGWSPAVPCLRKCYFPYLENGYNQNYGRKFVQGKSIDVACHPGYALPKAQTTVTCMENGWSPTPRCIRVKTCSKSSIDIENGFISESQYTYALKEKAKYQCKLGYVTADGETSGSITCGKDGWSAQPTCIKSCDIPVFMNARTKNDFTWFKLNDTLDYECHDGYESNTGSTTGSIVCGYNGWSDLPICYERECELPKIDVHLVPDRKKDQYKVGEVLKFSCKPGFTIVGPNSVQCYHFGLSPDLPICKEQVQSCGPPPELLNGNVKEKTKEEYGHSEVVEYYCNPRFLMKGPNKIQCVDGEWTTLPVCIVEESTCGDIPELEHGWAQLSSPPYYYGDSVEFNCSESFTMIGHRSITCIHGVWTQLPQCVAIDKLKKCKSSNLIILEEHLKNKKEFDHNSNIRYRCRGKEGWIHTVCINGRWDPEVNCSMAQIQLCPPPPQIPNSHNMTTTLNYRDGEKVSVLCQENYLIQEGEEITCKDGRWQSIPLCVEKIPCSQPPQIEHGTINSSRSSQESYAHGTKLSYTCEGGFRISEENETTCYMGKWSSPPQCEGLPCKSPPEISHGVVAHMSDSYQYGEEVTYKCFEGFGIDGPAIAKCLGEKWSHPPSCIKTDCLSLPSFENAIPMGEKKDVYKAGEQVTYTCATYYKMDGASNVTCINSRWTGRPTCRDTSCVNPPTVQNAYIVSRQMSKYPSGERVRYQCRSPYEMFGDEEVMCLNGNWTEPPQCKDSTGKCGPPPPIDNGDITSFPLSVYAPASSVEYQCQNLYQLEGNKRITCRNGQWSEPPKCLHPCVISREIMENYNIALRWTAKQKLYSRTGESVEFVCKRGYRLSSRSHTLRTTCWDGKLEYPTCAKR

“Recombinant BclA protein (rBclA), His-tagged (from UniProt Q81JD7 1-382) (natural protein)” yielded a Kd of 0.91 µM.
